Source: the supplement of paper PMC7125110
± gives the standard error. For some of these results: Variants at the floor of the assay were thinned out.

B1: glmS ribozyme (parent)
chain: AUAAAAGCGCCAGAACUACAGAAAUGUAGUUGACGAGGAGGAGGUUUAUCGAAUUUUCGGCGGAUGCCUCCAAA

Assays:
Settings in all cases: with glucosamine-6-phosphate
[1] = variants of: B1; experiment: kcat; higher = faster cleavage; RNA array
In short: (§1)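 Barcoded ribozyme variants, transcribed in situ by E. coli RNA polymerase on sequenced MiSeq chips, were followed via a hybridised Cy3 probe at 37 °C. Glucosamine-6-phosphate ranged from 40 μM to 10 mM in HEPES/KCl/Mg(OAc)2 buffer. kobs came from decay fits to per-tile medians, and kcat and KM from weighted Michaelis–Menten fits.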

[2] = variants of: B1; experiment: self-cleavage kobs at 160 uM GlcN6P; higher = faster cleavage; RNA array
In short: as §1

[3] = variants of: B1; experiment: self-cleavage kobs at 10000 uM GlcN6P; higher = faster cleavage; RNA array
In short: as §1

[4] = variants of: B1; experiment: KM; higher = weaker cofactor use; RNA array
In short: as §1

[5] = variants of: B1; experiment: self-cleavage kobs at 640 uM GlcN6P; higher = faster cleavage; RNA array
In short: as §1

[6] = variants of: B1; experiment: self-cleavage kobs at 2500 uM GlcN6P; higher = faster cleavage; RNA array
In short: as §1

[7] = variants of: B1; experiment: self-cleavage kobs at 40 uM GlcN6P; higher = faster cleavage; RNA array
In short: as §1

Variant	kcat [1] [s⁻¹]	self-cleavage kobs at 160 uM GlcN6P [2] [s⁻¹]	self-cleavage kobs at 10000 uM GlcN6P [3] [s⁻¹]	KM [4] [µM]	self-cleavage kobs at 640 uM GlcN6P [5] [s⁻¹]	self-cleavage kobs at 2500 uM GlcN6P [6] [s⁻¹]	self-cleavage kobs at 40 uM GlcN6P [7] [s⁻¹]
A48G C68U	0.000161 ± 4.8e-05	< 1e-05	4.18e-05 ± 8.3e-06				
A14G G40A G41U G66A	0.000815 ± 0.00014		0.000645 ± 0.0001	2850 ± 980	0.000149 ± 3.6e-05	0.000356 ± 9.3e-05	
C16U G44C	6.71e-05 ± 2.3e-05		8.38e-05 ± 1.3e-05		6.27e-05 ± 1.7e-05	2.88e-05 ± 1.4e-05	
A15C C68A	2.89e-05 ± 1.1e-05						
G13U A64G	0.00128 ± 0.00031	4.62e-05 ± 1.2e-05	0.000847 ± 8.3e-05	4210 ± 1600	0.000149 ± 1.9e-05	0.000657 ± 6.9e-05	
G51U C67A C71U	2.47e-05 ± 3.5e-06						
G13U U69A	4.51e-05 ± 1.2e-05		3.28e-05 ± 1.1e-05			6.1e-05 ± 1.3e-05	
A42U U45G	0.00034 ± 6.6e-05	4.68e-05 ± 1.4e-05	0.000278 ± 4.1e-05	1880 ± 720	7.31e-05 ± 1.5e-05	0.000225 ± 3.8e-05	
A6C C34A G37A G38A G63U C68U C70G	1.43e-05 ± 4.9e-06				< 1e-05		
G29A C70G	6.2e-05 ± 1.1e-05	5.22e-05 ± 1.7e-05	4.28e-05 ± 8.6e-06		5.96e-05 ± 1.1e-05	7.74e-05 ± 8.4e-06	
C16A U45C	9.45e-05 ± 2.3e-05		7.72e-05 ± 1.4e-05			8.36e-05 ± 2.3e-05	
U56G C68A	2.79e-05 ± 2.6e-06					2.72e-05 ± 1.3e-05	
C16A U54C	0.00231 ± 0.00079	0.000102 ± 2.6e-05	0.00194 ± 0.00029		0.000575 ± 0.00013	0.000967 ± 0.00025	6.96e-05 ± 1.3e-05
G41U C70U	0.0009 ± 0.00017	0.000709 ± 0.0001			0.000714 ± 0.00011	0.00131 ± 0.00021	0.000457 ± 3.9e-05
G29U U49A	< 1e-05	< 1e-05	< 1e-05				< 1e-05
U31C C67U	0.00122 ± 0.00016	0.000125 ± 2e-05	0.00115 ± 0.00016	1290 ± 260	0.000375 ± 4.8e-05	0.000785 ± 0.00011	4.68e-05 ± 7.4e-06
U31C C67G	4.05e-05 ± 1e-06		3.83e-05 ± 5.5e-06	467 ± 76	2.33e-05 ± 8.8e-06	3.49e-05 ± 6.3e-06	< 1e-05
U46A C58A	2.63e-05 ± 4.4e-06						

Variant	kcat [1] [s⁻¹]	self-cleavage kobs at 160 uM GlcN6P [2] [s⁻¹]	self-cleavage kobs at 10000 uM GlcN6P [3] [s⁻¹]	KM [4] [µM]	self-cleavage kobs at 640 uM GlcN6P [5] [s⁻¹]	self-cleavage kobs at 2500 uM GlcN6P [6] [s⁻¹]	self-cleavage kobs at 40 uM GlcN6P [7] [s⁻¹]
A14C C58A	0.000221 ± 1.4e-05		0.000165 ± 1.7e-05	3250 ± 500	3.29e-05 ± 1.1e-05	0.000102 ± 1.6e-05	
A14G G37A	0.00833 ± 0.0023	0.00027 ± 3.3e-05	0.00564 ± 0.00066	3890 ± 1400	0.00126 ± 0.00017	0.00399 ± 0.0005	0.000119 ± 1.7e-05
C11G G63A C68U	< 1e-05						
A42C U69G	0.00638 ± 0.0012	0.00249 ± 0.00048	0.00624 ± 0.00083	129 ± 51	0.00686 ± 0.0012	0.00742 ± 0.0017	0.00174 ± 0.00021
G13C U56G	0.000107 ± 9.4e-06		8.26e-05 ± 1.2e-05	2860 ± 820		5.37e-05 ± 1.7e-05	
A52G C70A	6.21e-05 ± 4e-06	4.3e-05 ± 1.3e-05	5.24e-05 ± 7.9e-06		5.8e-05 ± 6.8e-06	6.59e-05 ± 6.1e-06	2.42e-05 ± 1.2e-05
G41A G66C	3.76e-05 ± 1.2e-06		3.27e-05 ± 9.4e-06	1410 ± 200		2.49e-05 ± 1.2e-05	
A39C G66U	0.00114 ± 0.00017	8.13e-05 ± 2.3e-05	0.000908 ± 9.9e-05	3090 ± 910	0.000198 ± 3.9e-05	0.000424 ± 8.2e-05	
G37U G38C	< 1e-05	< 1e-05				< 1e-05	< 1e-05
U56G U69G	4.9e-05 ± 9e-06		4.12e-05 ± 7.4e-06		8.25e-05 ± 1.5e-05	4.98e-05 ± 1.3e-05	
A53C C71U	0.00685 ± 0.001	0.000539 ± 0.0001	0.00509 ± 0.0011	1760 ± 360	0.00167 ± 0.00036	0.00474 ± 0.00067	0.000156 ± 2.5e-05
C11U U49G	1.33e-05 ± 1.3e-06						< 1e-05
C10U G66A	1.5e-05 ± 2.3e-06						
A12C U45A	0.0415 ± 0.0022	0.00352 ± 0.00099	0.037 ± 0.013	1690 ± 110	0.0118 ± 0.003	0.0233 ± 0.0073	0.000958 ± 0.00019
U31G C34A G37U C67U	3.45e-05 ± 1.2e-05						
U45C U57A	1.9e-05 ± 2.7e-06						
C16U C67A	0.00194 ± 0.0004	0.0005 ± 6.7e-05		360 ± 110	0.00138 ± 0.00017	0.00166 ± 0.0003	0.000212 ± 2.2e-05
A15C G44A	2.81e-05 ± 1.7e-07	< 1e-05	2.02e-05 ± 9.6e-06	3920 ± 72			< 1e-05
